{"source": "paper PMC6499106", "about": "“The CXCR4-LASP1-eIF4F Axis Promotes Translation of Oncogenic Proteins in Triple-Negative Breast Cancer Cells” (Frontiers in Oncology, 2019)", "binders": {"B1": {"name": "LIM and SH3 Protein 1 (LASP1), endogenous in 231S cells (natural protein, human (endogenous in 231S, MDA-MB-231), UniProt Q14847 1-261, looked up)", "chain": "MNPNCARCGKIVYPTEKVNCLDKFWHKACFHCETCKMTLNMKNYKGYEKKPYCNAHYPKQSFTMVADTPENLRLKQQSELQSQVRYKEEFEKNKGKGFSVVADTPELQRIKKTQDQISNIKYHEEFEKSRMGPSGGEGMEPERRDSQDGSSYRRPLEQQQPHHIPTSAPVYQQPQQQPVAQSYGGYKEPAAPVSIQRSAPGGGGKRYRAVYDYSAADEDEVSFQDGDTIVNVQQIDDGWMYGTVERTGDTGMLPANYVEAI", "notes": "LIM and SH3 protein 1 (LASP1), endogenous in human 231S breast cancer cells; source: endogenous, 231S (MDA-MB-231 sorted for high CXCR4) cells, in lysate or in situ"}}, "molecular_target": "T1, eIF4E, the cap binding subunit of eIF4F, endogenous in 231S cells (human (endogenous in 231S, MDA-MB-231), UniProt P06730 1-217)", "T1 construct": "source: endogenous, 231S cells, in lysate, held on m7-GTP agarose beads", "T1 sequence (P06730 whole entry)": "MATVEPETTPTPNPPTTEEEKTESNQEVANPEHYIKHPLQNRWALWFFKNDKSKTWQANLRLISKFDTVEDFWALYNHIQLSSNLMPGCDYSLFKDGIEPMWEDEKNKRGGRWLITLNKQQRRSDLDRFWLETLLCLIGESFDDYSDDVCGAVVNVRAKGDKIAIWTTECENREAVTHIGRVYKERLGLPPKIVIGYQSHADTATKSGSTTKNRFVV", "assay": "pull-down; m7-GTP agarose beads with 1 mg 231S lysate in Co-IP buffer overnight at 4°C; cells stimulated with 20 nM CXCL12 over time, with or without 100 nM AMD3465; eIF4E as precipitate, LASP1 or eIF4G as co-precipitate by Western blot", "conditions": "partners not purified"}
{"binder": "B1", "values": [{"measurement": "fold change of co-precipitate, CXCL12 for 5 min against 0 min", "result": 2.2, "unit": "fold"}]}
